This test concerns the target Sumo-tagged Drosophila Spd-2 C-terminal half (Spd-2 697-1146) P817D, phosphorylated in vitro by human PLK1 (UniProt Q9VV79). The test is described as follows: SEC-MALS. The following applies: 50 µM protein, phosphorylated in vitro with recombinant human PLK1 kinase; parent: est. 0.50; read off a plot.
Sequence of UniProt Q9VV79 (Q9VV79 entry or part of it P817D | P817D): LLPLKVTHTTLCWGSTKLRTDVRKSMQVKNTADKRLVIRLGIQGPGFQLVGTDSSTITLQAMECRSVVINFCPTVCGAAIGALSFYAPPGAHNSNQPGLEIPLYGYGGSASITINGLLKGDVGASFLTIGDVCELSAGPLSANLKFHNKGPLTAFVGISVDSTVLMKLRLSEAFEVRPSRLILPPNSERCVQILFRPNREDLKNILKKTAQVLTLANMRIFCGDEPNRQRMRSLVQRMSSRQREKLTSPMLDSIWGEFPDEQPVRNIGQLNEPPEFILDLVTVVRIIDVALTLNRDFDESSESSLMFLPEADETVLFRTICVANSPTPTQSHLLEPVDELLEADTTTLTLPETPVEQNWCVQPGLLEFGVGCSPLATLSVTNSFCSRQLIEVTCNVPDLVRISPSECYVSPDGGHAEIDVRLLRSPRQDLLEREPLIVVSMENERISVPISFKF

Turning to “Sumo-tagged Drosophila Spd-2 C-terminal half (Spd-2 697-1146), wild type, phosphorylated in vitro by human PLK1 (from UniProt Q9VV79) P817D”, the response was determined as 0.14.
